# Target: p193myc (p193 protein harboring a C-terminal myc epitope tag, from CMV-p193myc) (mouse) (UniProt Q8VE73)
# Assay: cell-based or functional assay
substance,measurement,value
SV40 Large T Antigen (T-Ag) (from UniProt P03070 1-708),co-localization to the cytoplasm in co-transfected NIH-3T3 cells (immune cytologic analyses),63%

# — patent US20030073236A1, “p193 proteins and nucleic acids, and uses thereof” (priority 1999, published 2003)
